According to US20220168434A1, “APPLICATION OF TRANSTHYRETIN IN ENTERING EYE AND PREPARING DROP” (YIZHOU (SHANGHAI) BIOLOGICAL MEDICINE CO, LTD., priority 2019, published 2022):

Columns and labels:
[1] = Protein content in vitreous body during two weeks of eye dropping (ELISA, anti-His tag antibody); type: in vivo, SD rats (Rattus norregicus); details: SD rats; protein not fused with TTR
Experimental: (§1) The purified TTR protein (at a concentration of 4 μmol/L) prepared in Example 1 after removal of endotoxin and bacteria was subject to treating healthy SD rats (Rattus norregicus) (6 weeks old) and New Zealand big-eared rabbits (Oryctolagus cuniculus) (2 months old, about 2.5 kg) by means of eye dropping, the left eye was the sample eye dropped with the protein, and the right eye was the blank control eye dropped with saline. The protein was administered 1-3 times per day at a dosage of 0.4-0.8 nmol. Two weeks later, the eyeball was removed and separated to obtain the vitreous body sample. It was preliminarily verified by western-blot method (FIG. 7A) that TTR can enter the vitreous cavity from the ocular surface.
(§2) The purified TTR-GFP protein (at a concentration of 4 μmol/L) prepared in Example 2 after removal of endotoxin and bacteria was subject to treating healthy SD rats (Rattus norregicus) (6 weeks old) and New Zealand big-eared rabbits (Oryctolagus cuniculus) (2 months old, about 2.5 kg) by means of eye dropping, the left eye was the sample eye dropped with the protein, and the right eye was the blank control eye dropped with saline. The protein was administered 1-3 times per day at a dosage of 0.4-0.8 nmol. […] The content of TTR-GFP in the vitreous body sample was determined by ELISA with the anti-His tag antibody as the primary antibody (Table 10 and 11). […]

[2] = as above; type: in vivo, New Zealand big-eared rabbits (Oryctolagus cuniculus); details: New Zealand big-ear rabbits; protein not fused with TTR
Experimental: as §1, §2

Substance: Lysozyme: Lysozyme protein (Genbank Accession No.: AAL69327.1) not fused with TTR
- entering the vitreous body after eye dropping (in words) [1]: did not enter
- entering the vitreous body after eye dropping (in words) [2]: did not enter
